Experimental findings from paper PMC11139879 are described below.

Data set [1] deals with T1, pP1192R DNA topoisomerase II, full-length (African swine fever virus, UniProt A0A2X0THW2 1-1192). The experiment in a line: cryo-EM. The note with it: protein: recombinant; tags: C-terminal 8xHis; chain copies: 2; blunt.
Data set [2] concerns the target T1, pP1192R DNA topoisomerase II, …. The experiment in a line: EMSA. The note with it: protein: recombinant; tags: C-terminal 8xHis; chain copies: 2; label: 5'-Cy5 on O1; four-way junction of O1-O4. In general terms: Mobility shift assays separate free from complexed probe on a gel.
Data set [3] has the same target. The experiment in a line: size exclusion chromatography. The following applies: protein: recombinant; tags: C-terminal 8xHis; chain copies: 2; four-way junction of O1-O4. In general terms: SEC sorts molecules by how far they enter the pores of the column.

B1: 52 bp dsDNA (G-segment) (dsDNA)
DNA 1: ATGCATATATATGTATATGTATGTGTGTATATATACACATATATATATATAT
DNA 2: ATATATATATATATGTGTATATATACACACATACATATACATATATATGCAT
In the case of B1, the binding result in data set [1] is reported as “binds”.

B2: four-way junction DNA, Cy5 (structured_DNA)
DNA 1: CTGGACGCAATCTGACAATGCGCTCATCGTCATCCTCGGCACGCGCCG
DNA 2: CGGCGCGTGCCGAGGATGACGATGAGATAGGCGTTAACGCGGCCTA
DNA 3: TAGGCCGCGTTAACGCCTATTTGCCCGGGAGTACCGGCATTCCT
DNA 4: AGGAATGCCGGTACTCCCGGGCAACGCATTGTCAGATTGCGTCCAG
Turning to B2, the binding result in data set [2] was “binds”.

B3: four-way junction DNA (structured_DNA)
DNA 1: CTGGACGCAATCTGACAATGCGCTCATCGTCATCCTCGGCACGCGCCG
DNA 2: CGGCGCGTGCCGAGGATGACGATGAGATAGGCGTTAACGCGGCCTA
DNA 3: TAGGCCGCGTTAACGCCTATTTGCCCGGGAGTACCGGCATTCCT
DNA 4: AGGAATGCCGGTACTCCCGGGCAACGCATTGTCAGATTGCGTCCAG
On to B3, for which, in data set [3], the binding result was “binds”.
